Assay: soluble fraction after stress (log2 fold change); higher = more stays soluble; pooled small domains, quantitative proteomics
Conditions: stress: 50 degC
In short: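 Custom libraries of small protein domains were pooled and measured in a high-throughput format, with quantitative proteomics as the read-out. Each library was stressed at 50°C. The value is the log2 fold change in the amount of each protein that stays soluble after stress, used as a measure of aggregation propensity; higher values mean more of the protein stays soluble.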

Sequence	soluble fraction (log2)
HMREFQVMKQELQEMVHQRLDMSTELSDEAIGDVIDEVIMEKSRNMYISSVTKLTLRQELFNAIR	-0.629
HMTHFRTDERRREILSTIEADGRVSVSEIASRFDVSPVTIRSDLNYLAIQGKLKRVRGGAVLLDH	-0.76
HMFVEKDSIINKGNNSYNFVITDNNNKVLVEYNGLLPDLFKEEQGVVIEGRLKSDFIIHAFTVF	-0.209
HMSRAHTELEEKLLTMLEENDMTLPMRVISNIASRIEGIIIPEEKILEVLKKSYDRYREHQMD	0.0257
HMKHFTYEEMELMSIYDPGTREGLIANLEEMRGYLEPDETELRELTDSALEKLRELSDADYEQLELI	-0.476
HMSAAYVYVTGTRVNQRDGPSTFDRVMGVLVEGTRVQLLRDQGQWAQIRSDLGTGWLSSGFLSRNG	-1.87
HMKDMKISTKNLLQELAKNYPDQTSFRKNVIETTARAMGYTGKDFYPLLTTDNRVKIGTYDLATFLRSI	-0.718
HMETAESLLRRLIMLEDPAMQNAMYVLAVMLERGKQLVERAAKPHESGGILRVYEHKKSGDTFVVLDPR	-0.511
HMETDGGDLTPRERDVLSLIGRGLRNAEAASALGLSEHTIAGHIKSVYSKLGISTRAEAALLASRLGL	-0.0786
HMGNPSGLPLPRFASTRSEPINVRVGPGQKYDIAWTYLKSGIPVEIIQEFDTWRKIRDFDGAEGWIHQNLL	-0.937
HMGKSDDSLAAEKFIQHVRKNGELSYEQAYRMVHAYFPDFRNFEGMVSGAVKSGYLILIQKSTGLFLRAKE	-0.882
HMQNGNLVDVYLNWRGKYYAIKMFFPNSKMPRRSDVQDQIVKVYPDARVQSFQVSKYVPGQPFL	-1.62
HMIDDPTAVILRLVSEKQVIRRDDVVKALSVTPQKAYRLLKTMTTGGLLTRSGARRTTVYGLPDARER	-0.0945
HMSSGTAYATDAVNVRSGPGTSYTVLGYLSRGEKVTITGTVSNGWTQIQLPGNRLGYVSSAYLSASYPS	-0.259
HMEPAPELTPREQQVLARIALGMTDKAIAEELGVSHQTVRNHVARIYQKIKVHSRSQAVVWAREKGI	-0.192
HMLINPLDILRNFNLSLYDDSRDSASNKEIDEIFESIKTNNSHIFSTLKAYRIPLPIASLIIKKIIKITLE	-0.534
HMAQLKYEQIKSYLQAEAVKPESATRMPTVRELMRRFNVSLVTVNRALSELEHAKVIVRRQGAGIVAAQ	-0.703
HMSFVDFYGLFTTELQRLAELPVTADELIKNTGLHKSQLTDWLKRAEEDGVVKKLNRPVRYQVEKK	-0.987
HMSVAPISYSQFESYLEQGKVASVAVGQDTIAGRFTAPVDGKSQFVTTIVNPQILDRIDKSGVEITGV	0.176
HMAIDPLLDKGYEQYDKGEFTEAVKSFNRAIEIDPKNAEAHFLRAMTYQGLALSKLAVADLEKAIV	0.136
HMKQLNKRQNDILSFAEKQGYVSVENLAKLFSVTQQTIRRDINYLSDNELLVRTHGGAYYSS	-0.902
HMKITLAESVYERIRRDIITNQLKPGEKINIRELSTRYEASETPIRLALNRLASENIIEHFPRQGMRVK	-0.371
HMNLNIGNNIKNIRKSKNMTQTDFAELMGLSRSYIGDLENNRSNPSIKTLEAIARALDVPIVALIN	-0.399
HMQTMTDDQVMQYVISQQEKGATQQDIVSKLLQKGVTVDQMRRIRKKYEAQQSQPGALDLTGSS	0.209
HMNQDQDLSRIKGIGPEMVDRLHAQGVETLEQIAAMQMEQLKKLDQQISGNGKAVREQWAEQAKQLLTT	0.0638
HMAQFNELLFELRQDRKMTQEDLAKVLFVTSGTISNYENGVHLPDIEKLISLADFFGVTTDYLLG	-0.104

Sequence	soluble fraction (log2)
HMELLSVPSRLGTFFLGGEAGHIIRLYLPGDPTPRIAEHETPVLSEARRQLLEYLAGRRTAFSFPL	-0.139
HMTGSETLQDIFAHLEAGTVRTALSLIPRLDAVEYEQNRQRIAELAGVRPSALDDLRKQAKREEN	0.519
HMQGQADFTQGIANFTQYPVGSRITVFTLEGRRVAVVEIGKDGTAQLDMRNKPAGVYIVNTGKQSFKWLK	-1.26
HMFDGTLSIYPNPSKGIFNLDLLNVKDGEYTITVDNLLGQEVYSEIRNVINSSSKTLDLSNLTKGV	-0.173
HMNDIVKIYTTHRIINIEGLAKNEPIMLYTINGTLIDKSVSSNGSAQLHVKGIGVYLVKWANNIVKVIVPN	-2.42
HMVPLGDLSKNERRAMELAATNGNVTTRALADDAQVTKRTASTTLRRLAKRGLLEWIGKGPSDPGQFYRIP	-0.123
HMVTVQEGETLSAIAARSGVSVKDLVRANEIRNPDSIQEGQVLFVP	0.0612
HMEAIYKKNKNLIHTVIRDNFPFLIDTADYEDAFQEGSIGLIRAIDRFDDGLEYKFSSYAYTAIRNQIA	-0.409
HMEYTTEELDSLLKLYFQTHESINRNEFEQLTSYTRTTASRRLKTLVQAGKLQNIGLYRFPVYKPTEGNF	-2.49
HMTDTDVLSSRLSALSSGRTSAVRLRDGVLSLVLDVGGLSIEARKAMTTAIESTARATPGVEAVRIAET	-0.0141
HMRDSYEVEGRIASVSPAAGTFVVAGVTVDYTGARFVGGTVAQLAPGVKVEVEGRRLANGTLQAREIEFD	0.00935
HMISKTFEINEDNINNRLDIFLANQFDNLSRGIVQKLIESHSVSVSGNFVEKDYKLKLGDIIDVEINLS	-0.486
HMGQKMLTIELQEKVNKMPDNLASYDLKLSADGMSLIYKYSLKSERTGITALLQELKNAGLVMRDLKTEQ	-0.0274
HMEFFIIDHNGQQAGPFSFDQLVQKGISPETLVWKQGMADWNPAWKVEELKAVLEAVEANQSNQKAQ	0.462
HMQGRIYLNPDLAEKLRAQYAAYPHWSYLLHTENLGALVRKTESLGPMPSYSTILRYMHANDMRKRNKP	-1.6
HMENKIIKNAAHATLKVKKDAGIEITTELIREAVILFHRIYSPNDNPNINWERIINELESHYT	-2.77
HMKRSVIVTAERAEVRQKADEGSALVFEAEKNVSLEYLEAAPGGWVKVRHLDGQSGFVRGNQI	-0.37
HMITKEDVANKKVNLLFFGNFHKMKLPDFEWGITEMMQDRDYLYGSLTKDLYFLGLVLDRKYKI	0.0334
HMKIQTYEDFRNAYPDIQGSLFGSAERYKTDLDWGDVAAKYDADEELKNVRNIFQLVRRYEQKYS	0.332
HMVQMNMLELQEEMQRDRSWIIKHLFQDEYFRRKIAKFSQFPINDSGKYLFHRKSMLKFLNDYAEEIVER	-2.56
HMVYFAKNIRHLRRLRGMSQELLAAELDITRARLGAYEESRSEPPLHLLIKISEFFKLPVDIIVKNDLTKS	-3.66
HMNMKVGPVPANVVPANIKAHVSNNYSKYQIVQMMQNDKGYQVKLSNGTDLYYDKDGNILKTS	0.196
HMGVDIAEHDGQPAVSIRKGAAESVAQWVKDQGGTFPQEVEMTVQNVARAGGTPLVVARGRDVLGVIYLKD	0.0501
HMHSVIALTIPADYAGLRLDQALAKLLPNWSRSRLQTWIAENRVILDGQITTIKQKVWGNELIQISPQD	-1.45
HMSATEPVHFDPNKSPEDMTVEELQAGILAKMANNGPVSDQMKKTVNENIWHDSLVNWLKSF	0.0373
HMSFNSQENKSVLWQFLLENNFFIGLSDKKFNKVKDIFEKNIQSISIVNDSISNKNKILIQKMMEELELL	-1.88

Sequence	soluble fraction (log2)
HMSKQIEVPDVTDMTVSDAIDVLQDKGFVVSDEQKEVASSEIEEGRVVRTSPAVGSKRKDGTVVTLYVSI	0.045
HMSGLLTTSKLAQKHKMKTEPMLEKLTAAGYLEWRDDKHSLTEQGKKAGGQFKTGRFGAYFLWPEDLV	-0.259
HMGQPAVSSRDVAEQFGKEHRNVIQSIKNLIAENSALTFMFIEDTYTAGTGKKYPMYYMNRDGFTLLA	0.224
HMAAAQILRAAVLRVPAEETMRFVTETPELRRYLGASLGPTAAIVRPGQEQNLAAALQSHGILVEFDE	0.0258
HMYEENFSKIKNDISTIFKRHKISFTNNFISHLSSVFNTDSLTNKMELEKLDSFLINNKKVTENELLKFII	-0.025
HMTSVPGTVVTNANLRGGPGTNYPIVGKAPAGTTVNVVESTADRTWYYLDTGSWIAAFLVKLS	0.152
HMYQKERDKEISEIETFLKKITNANGTRAYSDESIADMSYVELLNLYEGITSKLTEEEIENI	0.131
HMQITDTEAIATTLDEIIAANPKEWERLKAGQEQLVKFFVGQVMRVTKGRANPQVVNDLLKERL	-0.075
HMRGLGDLEPVDSLGKIRIDDGHMVLAFGRHKGRHLSEVQAEDPRYIHWLLSPKGIEDVEAREKVKVYLEG	-0.0024
HMGWQPDPLTTRERLVAELATQASNAQIAEQLHLSVRTVEGHLAHVYTKLGITTRRELPAALAGAR	-0.891
HMADTPQAYIRQMVQEAGADGIMLSTITDRLRARFKDFKVRDLGYAQMRQYMASTGTYDLEKSGRNFRVHL	-0.935
HMNLDPIKRKSEILSLFESHKNVKFNEIFFEKVNKEFTVLTFLIILELVKDNIIDFSQTQEGLIEFFTR	-0.115
HMDLPATVPNLEGLTEVTARNKLTVAGLSLGEVKEVESDKEKGTVVGQSIAYGKRVTKGTKVDIEISSGK	0.0361
HMTNADRFIGEEAMVIKKIDDINNDGQVKIAGQVWSAVSEDKSPLEEGTIVKVIAIRGVKLVVEPVS	0.0662
HMDGDVAVKGGDGVLEVRLANAANVRVYNLAGRLMADYTGTELHMPLPKGVYMVVAGDNRTKVVV	0.074
HMTIPSYAEAVRYVRRQPRINTSTLADGLGIRWSLALDYLERMARSGVVGAIEDDGWWPVAR	-0.71
HMKRTKLEEATEWLRDRLSDGVKYNGEELLREGESADMARRTLRRAAQELGVIIERERGARGRWFWSLP	-0.515
HMGTPEQVVVSSVLKETNEIVLKWPADGFMAKYKMDNLNLNFEPVHGQGVMGYFIGSRLIKLELV	-0.251
HMDVNLSIRSGETIGIIGSTGSAKSTLVQLIPRLYDTTEGEVLVGGVNVKNYDLEALRNSVAMVLQKN	-0.066
HMGGTFLVRILDPALNIRAQPSLTARINGVIRDKSVYTIVATSFEPKTQITWGKLKSGAGWISIGSKYVKK	-3.52
HMEDTFEYPVSVNGKLRFKIELPVSMEKDEIRNIVLNDERAKKWLATGTLTNLIVVPNRIINIVIK	-0.124
HMGRLPMNIVRAIVEHLDRHASYSEINRATGASKGFISKVAAAVEAASLTPEKFLLLNDEDIQNRITPGR	-0.234
HMKTIQVGSTVRVNQGAKTYSGGGLASFVYKRNHKVSQLQGDRAVITYEGTVVAAVHVSDLSLIH	-0.062
HMDQPLIEPLSERELEVLSLIAAGYSNAEIAERLVIAVGTVKRHINNLYGKLGAGSRTQALAIAREIGLM	0.0589

From the domain aggregation screens of Martell et al. (2025)
